T1: human CD73 on human tumor cell lines (human, UniProt P21589 27-549)
T1 sequence (looked up): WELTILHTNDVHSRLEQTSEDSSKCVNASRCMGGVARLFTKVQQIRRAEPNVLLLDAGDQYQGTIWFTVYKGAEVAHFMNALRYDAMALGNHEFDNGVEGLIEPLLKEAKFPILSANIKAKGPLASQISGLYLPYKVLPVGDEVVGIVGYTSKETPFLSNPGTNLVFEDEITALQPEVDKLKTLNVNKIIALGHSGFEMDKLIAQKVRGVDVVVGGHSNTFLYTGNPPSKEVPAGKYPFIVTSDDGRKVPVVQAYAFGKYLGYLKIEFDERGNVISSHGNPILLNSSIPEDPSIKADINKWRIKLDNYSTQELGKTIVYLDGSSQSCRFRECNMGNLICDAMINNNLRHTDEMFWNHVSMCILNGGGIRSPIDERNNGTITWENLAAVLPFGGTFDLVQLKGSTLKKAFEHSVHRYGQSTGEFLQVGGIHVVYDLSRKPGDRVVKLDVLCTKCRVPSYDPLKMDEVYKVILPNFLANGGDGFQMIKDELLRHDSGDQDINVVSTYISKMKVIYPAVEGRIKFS

B1: CD73.4-IgG2-C219S-IgG1.1f (antibody)
heavy: QVQLVESGGGVVQPGRSLRLSCAASGFTFSNYGMHWVRQAPGKGLEWVAVILYDGSNKYYPDSVKGRFTISRDNSKNTLYLQMNSLRAEDTAVYYCARGGSSWYPDSFDIWGQGTMVTVSSASTKGPSVFPLAPCSRSTSESTAALGCLVKDYFPEPVTVSWNSGALTSGVHTFPAVLQSSGLYSLSSVVTVPSSNFGTQTYTCNVDHKPSNTKVDKTVERKSCVECPPCPAPPVAGPSVFLFPPKPKDTLMISRTPEVTCVVVDVSHEDPEVKFNWYVDGVEVHNAKTKPREEQYNSTYRVVSVLTVLHQDWLNGKEYKCKVSNKALPSSIEKTISKAKGQPREPQVYTLPPSREEMTKNQVSLTCLVKGFYPSDIAVEWESNGQPENNYKTTPPVLDSDGSFFLYSKLTVDKSRWQQGNVFSCSVMHEALHNHYTQKSLSLSPGK
light: not shown
notes: also called CD73.4-IgG2CS-IgG1.1f; CD73.4-IgG2.3G1.1f-KH
B2: CD73.4-IgG2.3-plusGGG (antibody)
heavy: QVQLVESGGGVVQPGRSLRLSCAASGFTFSNYGMHWVRQAPGKGLEWVAVILYDGSNKYYPDSVKGRFTISRDNSKNTLYLQMNSLRAEDTAVYYCARGGSSWYPDSFDIWGQGTMVTVSSASTKGPSVFPLAPCSRSTSESTAALGCLVKDYFPEPVTVSWNSGALTSGVHTFPAVLQSSGLYSLSSVVTVPSSNFGTQTYTCNVDHKPSNTKVDKTVERKSCVEGGGCPPCPAPPVAGPSVFLFPPKPKDTLMISRTPEVTCVVVDVSHEDPEVQFNWYVDGVEVHNAKTKPREEQFNSTFRVVSVLTVVHQDWLNGKEYKCKVSNKGLPAPIEKTISKTKGQPREPQVYTLPPSREEMTKNQVSLTCLVKGFYPSDIAVEWESNGQPENNYKTTPPMLDSDGSFFLYSKLTVDKSRWQQGNVFSCSVMHEALHNHYTQKSLSLSPGK
light: not shown
notes: also called mAb-CD73.4-IgG2.3-plusGGG; CD73.4-Vh-hHC-IgG2.3-plusGGG
B3: CD73.4-IgG2.5-plusTHT (antibody)
heavy: QVQLVESGGGVVQPGRSLRLSCAASGFTFSNYGMHWVRQAPGKGLEWVAVILYDGSNKYYPDSVKGRFTISRDNSKNTLYLQMNSLRAEDTAVYYCARGGSSWYPDSFDIWGQGTMVTVSSASTKGPSVFPLAPSSRSTSESTAALGCLVKDYFPEPVTVSWNSGALTSGVHTFPAVLQSSGLYSLSSVVTVPSSNFGTQTYTCNVDHKPSNTKVDKTVERKCCVETHTCPPCPAPPVAGPSVFLFPPKPKDTLMISRTPEVTCVVVDVSHEDPEVQFNWYVDGVEVHNAKTKPREEQFNSTFRVVSVLTVVHQDWLNGKEYKCKVSNKGLPAPIEKTISKTKGQPREPQVYTLPPSREEMTKNQVSLTCLVKGFYPSDIAVEWESNGQPENNYKTTPPMLDSDGSFFLYSKLTVDKSRWQQGNVFSCSVMHEALHNHYTQKSLSLSPGK
light: not shown
notes: also called mAb-CD73.4-IgG2.5plusTHT/LC; CD73.4-Vh-hHC-IgG2.5plusTHT/LC
B4: CD73.4-IgG2.5G1-KH (antibody)
heavy: QVQLVESGGGVVQPGRSLRLSCAASGFTFSNYGMHWVRQAPGKGLEWVAVILYDGSNKYYPDSVKGRFTISRDNSKNTLYLQMNSLRAEDTAVYYCARGGSSWYPDSFDIWGQGTMVTVSSASTKGPSVFPLAPSSRSTSESTAALGCLVKDYFPEPVTVSWNSGALTSGVHTFPAVLQSSGLYSLSSVVTVPSSNFGTQTYTCNVDHKPSNTKVDKTVERKCCVECPPCPAPPVAGPSVFLFPPKPKDTLMISRTPEVTCVVVDVSHEDPEVKFNWYVDGVEVHNAKTKPREEQYNSTYRVVSVLTVLHQDWLNGKEYKCKVSNKALPAPIEKTISKAKGQPREPQVYTLPPSREEMTKNQVSLTCLVKGFYPSDIAVEWESNGQPENNYKTTPPVLDSDGSFFLYSKLTVDKSRWQQGNVFSCSVMHEALHNHYTQKSLSLSPGK
light: not shown
notes: also called mAb-CD73.4-IgG2.5G1-KH; CD73.4-Vh-hHC-IgG2.5G1-KH
B5: CD73.4-IgG2.3G1-KH (antibody)
heavy: QVQLVESGGGVVQPGRSLRLSCAASGFTFSNYGMHWVRQAPGKGLEWVAVILYDGSNKYYPDSVKGRFTISRDNSKNTLYLQMNSLRAEDTAVYYCARGGSSWYPDSFDIWGQGTMVTVSSASTKGPSVFPLAPCSRSTSESTAALGCLVKDYFPEPVTVSWNSGALTSGVHTFPAVLQSSGLYSLSSVVTVPSSNFGTQTYTCNVDHKPSNTKVDKTVERKSCVECPPCPAPPVAGPSVFLFPPKPKDTLMISRTPEVTCVVVDVSHEDPEVKFNWYVDGVEVHNAKTKPREEQYNSTYRVVSVLTVLHQDWLNGKEYKCKVSNKALPAPIEKTISKAKGQPREPQVYTLPPSREEMTKNQVSLTCLVKGFYPSDIAVEWESNGQPENNYKTTPPVLDSDGSFFLYSKLTVDKSRWQQGNVFSCSVMHEALHNHYTQKSLSLSPGK
light: not shown
notes: also called mAb-CD73.4-IgG2.3G1-KH; CD73.4-Vh-hHC-IgG2.3G1-KH
B6: CD73.4-IgG2.5 (antibody)
heavy: QVQLVESGGGVVQPGRSLRLSCAASGFTFSNYGMHWVRQAPGKGLEWVAVILYDGSNKYYPDSVKGRFTISRDNSKNTLYLQMNSLRAEDTAVYYCARGGSSWYPDSFDIWGQGTMVTVSSASTKGPSVFPLAPSSRSTSESTAALGCLVKDYFPEPVTVSWNSGALTSGVHTFPAVLQSSGLYSLSSVVTVPSSNFGTQTYTCNVDHKPSNTKVDKTVERKCCVECPPCPAPPVAGPSVFLFPPKPKDTLMISRTPEVTCVVVDVSHEDPEVQFNWYVDGVEVHNAKTKPREEQFNSTFRVVSVLTVVHQDWLNGKEYKCKVSNKGLPAPIEKTISKTKGQPREPQVYTLPPSREEMTKNQVSLTCLVKGFYPSDIAVEWESNGQPENNYKTTPPMLDSDGSFFLYSKLTVDKSRWQQGNVFSCSVMHEALHNHYTQKSLSLSPGK
light: not shown
notes: also called mAb-CD73.4-IgG2.5; CD73.4-Vh-hHC-IgG2.5
B7: CD73.4-IgG2.5G1.1f-KH (antibody)
heavy: QVQLVESGGGVVQPGRSLRLSCAASGFTFSNYGMHWVRQAPGKGLEWVAVILYDGSNKYYPDSVKGRFTISRDNSKNTLYLQMNSLRAEDTAVYYCARGGSSWYPDSFDIWGQGTMVTVSSASTKGPSVFPLAPSSRSTSESTAALGCLVKDYFPEPVTVSWNSGALTSGVHTFPAVLQSSGLYSLSSVVTVPSSNFGTQTYTCNVDHKPSNTKVDKTVERKCCVECPPCPAPPVAGPSVFLFPPKPKDTLMISRTPEVTCVVVDVSHEDPEVKFNWYVDGVEVHNAKTKPREEQYNSTYRVVSVLTVLHQDWLNGKEYKCKVSNKALPSSIEKTISKAKGQPREPQVYTLPPSREEMTKNQVSLTCLVKGFYPSDIAVEWESNGQPENNYKTTPPVLDSDGSFFLYSKLTVDKSRWQQGNVFSCSVMHEALHNHYTQKSLSLSPGK
light: not shown
notes: also called mAb-CD73.4-IgG2.5G1.1f-KH; CD73.4-Vh-hHC-IgG2.5G1.1f-KH

These binders were tested against T1, human CD73 on human tumor cell lines (assay: cell-based or functional assay).
With B1 the “T1/2 internalization, Calu6” value was 34 min, the “T1/2 internalization, NCI-H292” value was 15.8 min and the “T1/2 internalization, NCI-H1437” value was 19 min. For the same binder, the “T1/2 internalization, NCI-H1437 (no wash)” value was 20.5 min, the “T1/2 internalization, SNU-C1” value was 29.7 min and the “T1/2 internalization, SNU-C1 (no wash)” value was 61.5 min. For the same binder, the “Ymax internalization, Calu6” value was 76.8% and the “Ymax internalization, NCI-H292” value was 77.6%.

Target: T1, human CD73 on human tumor cell lines
Assay: cell-based or functional assay
Remark: another data set of the same source
With B2 the “T1/2 internalization, Calu6” value was 20.1 min, the “T1/2 internalization, NCI-H292” value was 16.3 min and the “Ymax internalization, Calu6” value was 81.7%. The “Ymax internalization, NCI-H292” value was 91.6%. B3 was tested, and the “T1/2 internalization, Calu6” value was 17.2 min, the “T1/2 internalization, NCI-H292” value was 15.4 min and the “Ymax internalization, Calu6” value was 80.2%. The “Ymax internalization, NCI-H292” value was 89.6%. With B4 the “T1/2 internalization, Calu6” value was 17 min, the “T1/2 internalization, NCI-H292” value was 15.4 min and the “Ymax internalization, Calu6” value was 76%. The “Ymax internalization, NCI-H292” value was 90.8%. With B5 the “T1/2 internalization, Calu6” value was 23.8 min, the “T1/2 internalization, NCI-H292” value was 16.8 min and the “Ymax internalization, Calu6” value was 81.6%. The “Ymax internalization, NCI-H292” value was 91.6%. In the case of B6, the “T1/2 internalization, Calu6” value is reported as 20.9 min, the “T1/2 internalization, NCI-H292” value is reported as 18.3 min and the “Ymax internalization, Calu6” value is reported as 79%. For the same binder, the “Ymax internalization, NCI-H292” value was 89.6%. B7 was tested, and the “T1/2 internalization, Calu6” value was 21.2 min, the “T1/2 internalization, NCI-H292” value was 18 min and the “Ymax internalization, Calu6” value was 79.6%. The “Ymax internalization, NCI-H292” value was 90.9%. With B1 the “T1/2 internalization, Calu6” value was 21 min, the “T1/2 internalization, NCI-H292” value was 16.6 min and the “Ymax internalization, Calu6” value was 81%. The “Ymax internalization, NCI-H292” value was 90.3%.

Reference: patent US20220106400A1 (Bristol-Myers Squibb, published 2022)
